Laboratory results published in patent publication US9290800.

Molecular target: T1, M2Y DNA polymerase-His10 (polymerase A) (Bacteriophage M2Y) (UniProt P19894)
T1 sequence: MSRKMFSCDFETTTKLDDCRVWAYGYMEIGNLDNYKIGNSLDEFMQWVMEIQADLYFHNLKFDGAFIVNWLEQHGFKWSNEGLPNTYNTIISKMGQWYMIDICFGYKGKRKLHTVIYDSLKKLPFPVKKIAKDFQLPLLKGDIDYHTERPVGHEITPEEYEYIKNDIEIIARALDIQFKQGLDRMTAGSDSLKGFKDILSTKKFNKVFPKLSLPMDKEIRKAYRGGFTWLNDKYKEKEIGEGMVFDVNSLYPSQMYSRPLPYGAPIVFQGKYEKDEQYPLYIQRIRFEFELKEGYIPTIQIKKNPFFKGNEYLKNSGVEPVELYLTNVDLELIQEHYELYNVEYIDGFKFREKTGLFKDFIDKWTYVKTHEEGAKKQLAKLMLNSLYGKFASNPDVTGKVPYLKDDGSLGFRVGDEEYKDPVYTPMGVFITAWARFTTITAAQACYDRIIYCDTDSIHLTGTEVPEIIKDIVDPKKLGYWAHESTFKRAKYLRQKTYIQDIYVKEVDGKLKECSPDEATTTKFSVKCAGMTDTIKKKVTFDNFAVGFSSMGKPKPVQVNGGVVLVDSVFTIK
Details: average amplification per round over two rounds

**Q.** For FMR1 genomic fragment SMRTbell, which activity is on record?
**A.** The activity was 177 fold.
